Measurements as given in PMC3105379.
pKd: −log10 of the molar value. Like-named read-outs stand apart in the source and are kept apart here.

What was measured:
Test in all cases: other fluorescence titration
[1] = molecular target: BIQ, fluorescent reporter containing an IQ domain sequence derived from neuromodulin (UniProt P17677)
[2] = molecular target: BIQG^6A, variant of BIQ with replacement A for the G at position 6
[3] = molecular target: BIQ, fluorescent reporter containing an IQ domain sequence derived from neuromodulin (UniProt P17677); remark: listed apart in the source
[4] = molecular target: BIQG^6A, variant of BIQ with replacement A for the G at position 6; remark: listed apart in the source
[5] = molecular target: BIQG^6M, variant of BIQ with replacement M for the G at position 6
[6] = molecular target: BIQG^6R, variant of BIQ with replacement R for the G at position 6

Substance “calmodulin (native CaM) (from UniProt P0DP23 1-149) (natural protein)” has a pKd [1] of 5.62, a pKd [2] of 5.27 and a pKd [3] of 5.54. The pKd [4] was 6.05, the pKd [5] was 6.40 and the pKd [6] was 6.40.
